Assay in all cases: EMSA
The target of series [1] is T1, MBNL1 (GST-MBNL1 1-260) (UniProt Q9NR56 1-260).
T1 sequence: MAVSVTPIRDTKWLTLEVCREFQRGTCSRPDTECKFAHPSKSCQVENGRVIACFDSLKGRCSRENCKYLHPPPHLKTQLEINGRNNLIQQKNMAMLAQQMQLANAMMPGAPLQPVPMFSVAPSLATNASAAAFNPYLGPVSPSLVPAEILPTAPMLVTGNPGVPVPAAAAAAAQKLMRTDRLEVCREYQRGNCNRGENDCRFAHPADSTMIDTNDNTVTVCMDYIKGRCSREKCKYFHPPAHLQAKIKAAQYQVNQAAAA

The target in series [2] is T1, MBNL1 (GST-MBNL1 1-260). The source holds these as a separate data set.
In series [3] the target is T1, MBNL1 (GST-MBNL1 1-260). The source holds these as a separate data set.
Series [4] concerns the target T1, MBNL1 (GST-MBNL1 1-260). This is another data set of the same source.
Series [5] addresses T1, MBNL1 (GST-MBNL1 1-260). This is another data set of the same source.

Where two headings read alike, the source gives them in different places.

In the series with MBNL1 (GST-MBNL1 1-260) [1], GCGGCGGGCAGCUGUGCUGGAGAGCAGAUGCUUCACCAAU (ssRNA) [INSR] came in with a Kd of 120 nM.

B1: TNNT2 81mer template (ssRNA)
RNA: GGGAAUGGAUCCACAUCUACGAAUUCCCUGUCUCGCUUUUCCCCUCCGCUGCGGCCACAAGACUCGAUACGUGACGAACCU
Turning to B1, binding with MBNL1 (GST-MBNL1 1-260) [1] was characterised by a dissociation constant (Kd) of 30 nM.

As to CCGAUCCCGCUUAUGCCAUCCGCUGCAGUCAC (ssRNA) [F06 32mer], in the series with MBNL1 (GST-MBNL1 1-260) [2], the binding result is “binds”.

UGUUCCUCGCUUUUCGCCUCCGCUUCCGCCGC (ssRNA) [B07 32mer] yielded a Kd with MBNL1 (GST-MBNL1 1-260) [1] of 0.66 nM.

For UGCCACUGCUGCUGCUGCGCUUCCAGUCAGGGUGGGCCGC (ssRNA) [ATP2A1], the Kd in the series with MBNL1 (GST-MBNL1 1-260) [1] was determined as 15 nM.

As to CCUUUAUUGUGCAUGCUUAGUCUUGUUAUUCGUUGUAUAU (ssRNA) [MBNL1 site #2], in the series with MBNL1 (GST-MBNL1 1-260) [1], the affinity, expressed as Kd, was 45 nM.

As for CCUGUCUCGCUUUUCCCCUCCGCUGCGGCCAC (ssRNA) [TNNT2 32mer], binding with MBNL1 (GST-MBNL1 1-260) [1] was characterised by a dissociation constant (Kd) of 20 nM.

In the series with MBNL1 (GST-MBNL1 1-260) [1], CCUGCUUCGCUUCUGCAUUGUUCGGCCGGUUG (ssRNA) [A04 32mer] came in with a Kd of 180 nM.

B2: H01 CA1-2 (ssRNA)
RNA: GGGAAUGGAUCCACAUCUACGAAUUCCCUCAUUUCAUAUUGCGCUGCAAUUCCUGUUCAAGACUCGAUACGUGACGAACCU
In the case of B2, the binding signal with MBNL1 (GST-MBNL1 1-260) [3] was 12 fold lower affinity than H01.

B3: F06 UCCA 81mer (ssRNA)
RNA: GGGAAUGGAUCCACAUCUACGAAUUCCCGAUCCUCCAUAUGCCAUCCGCUGCAGUCACAAGACUCGAUACGUGACGAACCU
With B3, the binding signal with MBNL1 (GST-MBNL1 1-260) [4] is 140 fold lower affinity than F06.

Take GCCGAGGAGGUGGUGUGAUUGCUUUAGCGCCGUCAUUUUC (ssRNA) [GRIN1]: in the series with MBNL1 (GST-MBNL1 1-260) [1], the Kd was determined as 280 nM.

With CUGCUUCUGCUUCUGCUUCUGCUUCUGCUUCUGCUU (ssRNA) [(CUGCUU)6 (SELEX motif 1)], the binding result with MBNL1 (GST-MBNL1 1-260) [5] was “binds”.
